# Test results reported in PMC11326647, “In vitro reconstitution reveals membrane clustering and RNA recruitment by the enteroviral AAA+ ATPase 2C” (PLOS Pathogens, 2023).
# Target: His6-MBP-tagged poliovirus 2C([change]) (residues 1-11, 41-329) (poliovirus type 1 Mahoney) (UniProt P03300)
# Assay: mass photometry
substance,measurement,value
"His6-MBP-tagged poliovirus 2C([change]) (residues 1-11, 41-329) (from UniProt P03300 1128-1456) (natural protein)",stoichiometry N,2
